Test results reported in patent publication US20080311122A1, “Antagonists of Hmgb1 and/or Rage and Methods of Use Thereof” (Medimmune, LLC, priority 2005, published 2008).
“Also recorded” adds a separate entry of the source.

B1: G9: human anti-HMG1 antibody; VL/VH aa SEQ ID NO: 34/36 (antibody, listed as Homo sapiens, V domains shown)
VH: EVQLLESGGGLVQPGGSLRLSCAASGFTFSSYDMFWVRQAPGKGLEWVSRISPSGGYTYYADSVKGRFTISRDNSKNTLYLQMNSLRAEDTAVYYCARLRYFDSRGYAFDIWGQGTMVTVSS
VL: AQDIQMTQSPGTLSLSPGERATLSCRASQSVRSSYLAWYQQKPGQAPRLLIYGASTRATGIPDRFSGSGSGTDFTLTISRLEPEDFAVYYCQQYGTSRWTFGQGTKVEIK
B2: G20: human anti-HMG1 antibody; VL/VH aa SEQ ID NO: 46/48 (antibody, listed as Homo sapiens, V domains shown)
VH: EVQLLESGGGLVQPGGSLRLSCAASGFTFSWYDMFWVRQAPGKGLEWVSWISPSGGYTKYADSVKGRFTISRDNSKNTLYLQMNSLRAEDTAMYYCARSGLDYYDSSGYLDAFDIWGQGTMVTVSS
VL: AQDIQMTQSPSSVSASVGDRVTITCRASQDVSIWLAWYQQKPGKAPKLLIFGASRLQSGVPSRFSGSRSGADFTLTIDSVQPEDFASYYCQQADSFPLTFGGGTKVEIK
B3: S16: human anti-HMG1 antibody, ATCC PTA-6259; VL/VH aa SEQ ID NO: 13/15 (antibody, listed as Homo sapiens, V domains shown)
VH: EVQLLESGGGLVQPGGSLRLSCAASGFTFSWYSMLWVRQAPGKGLEWVSYISPSGGFTNYADSVKGRFTISRDNSKNTLYLQMNSLRAEDTAVYYCARWDYNSGWYYDHWGQGTLVTVSS
VL: AQDIQMTQSPDTLSLSPGERATLSCRASQSVNSRNLAWYQQKPGQAPRLLIYGASTRATGIPDRFSGSVSGTEFTLTISSLQPDDFATYYCQQYNSYFTFGQGTKLEIK
B4: S17: human anti-HMG1 antibody; VL/VH aa SEQ ID NO: 70/72 (antibody, listed as Homo sapiens, V domains shown)
VH: EVQLLESGGGLVQPGGSLRLSCAASGFTFSYYDMHWVRQAPGKGLEWVSRISPSGGYTWYADSVKGRFTISRDNSKNTLYLQMNSLRAEDTAVYYCTRGRYTSGWHEYFDPWGQGTLVTVSS
VL: AQDIQMTQSPSSLSASVGDRVTITCRASQSIGTYLNWYQQKPGTAPKVLIYAASSLQSGVPSRFSGSGSGTDFTLTISSLQPEDFSTYYCQQSYNTPRTFGQGTKLEIK
B5: E11: human anti-HMG1 antibody, recognizes HMG1 A-Box; VL/VH aa SEQ ID NO: 24/26 (antibody, listed as Homo sapiens, V domains shown)
VH: EVQLLESGGGLVQPGGSLRLSCAASGFTFSRYQMNWVRQAPGKGLEWVSSISPSGGHTHYADSVKGRFTISRDNSKNTLYLQMNSLRAEDTAVYYCAKDGRQGKISTVDHWGQGTLVTVSS
VL: AQDIQMTQSPGTLSLSPGERATLSCRASQSVRSNFLAWYQQKPGQAPRLLIYGASRRASGIPDRFSGSGFGADFTLSISRLEPEDFAVYYCQQYGSSPNTFGQGSRVEIK
B6: G2: human anti-HMG1 IgG1 from Fab phage display library; VL/VH aa SEQ ID NO: 30/32 (antibody, listed as Homo sapiens, V domains shown)
VH: EVQLLESGGGLVQPGGSLRLSCAASGFTFSWYKMQWVRQAPGKGLEWVSGISPSGGSTAYADSVKGRFTISRDNSKNTLYLQMNSLRAEDTAVYYCAKMGLFNTGNSYVDYWGQGTLVTVSS
VL: AQSELTQPPSVSEAPGQRVTISCSGSTSNIGNNAVIWYQQLPGKAPKLLIYYDDLLPSGVSDRFSGSKSGTSGSLAISGLQSEDEADYYCASWDDNLNGPLFGGGTKLTVL

Columns and labels:
[1] = system: native activated HMG1 stimulated IL-6 release from human PBMCs; assay: Inhibition of cytokine release from PBMCs, native activated HMG1; assay type: cell-based
Method: Inhibition of Cytokine Release: Human peripheral blood mononuclear cells (PBMCs) were isolated from the peripheral blood of healthy volunteers by a density gradient centrifugation. Freshly drawn heparinized whole blood was mixed with two volume of PBS. The diluted blood was gently layered on the surface of Histopaque-1077 (Sigma-Aldrich) and centrifuged at 400×g, at RT for 30 minute. PBMCs were collected from the interface between the plasma and the density gradient solution. After washing in PBS 3×, the purified PBMCs were resuspended in RPMI-1640 medium (GIBCO BRL) containing 100 U/ml penicillin, 100 μg/ml streptomycin and […] β-mercaptoethanol. 1×10^5 of cells was added in each well of 96-well cell culture plates.
The PBMCs were incubated for two hours at 37° C. with 5% CO2. recombinant HMG1, at 4 μg/ml, or native activated HMG1 from 2.4×10^5 LPS stimulated THP-1 cells, and different concentrations of human anti-HMGB-1 monoclonal antibodies, a RAGE-FC fusion protein or an HMG1 A-box-Fc fusion protein were added into each well. The culture media was supplemented with 8 U/ml (1 μg/ml) Polymyxin B sulphate (Sigma-Aldrich) to inhibit potential endotoxin. PBMCs from the same donor without stimulation with HMG1 were used as controls. The cell-free culture media were harvested after 14 hours and stored at −20° C.
The culture media were analyzed for inflammatory cytokines using Beadlyte human multi-cytokine flex kit from Upstate by Luminex 100 (Luminex Corp.). Proinflammatory cytokines TNF-α, IL-6, IL-1β and IL-12 (p40) were measured for cells stimulated with recombinant HMG1. In addition, TNF-α, IL-6, IL-1β and IL-8 were measured for cells stimulated with native activated HMG1.
Cytokine release data is presented as mean of triplicates±standard deviations. IC50 for anti-HMGB1 monoclonal antibody is defined as the concentration of antibody required yielding one-half maximal inhibition of the cytokine release from PBMCs stimulated by HMGB1. It was calculated by PRISM program.

[2] = system: HMG1 induced TLR4 activation; assay: TLR4 activation assay (NF-κB luciferase reporter, 293 cells); assay type: cell-based, human
Method: TLR4 Activation Assay: HuTLR4 and CD14 stably expressed 293 cells (Invitrogen) were seeded in a 96 well plate at 2×10^4/well in 100 μl of DMEM with 10% FCS overnight. Cells were then transfected with NF-κB/Luc (Stratagene) luciferase reporter construct as indicated by the kit for 24 hr. A mixture of HMGB1 and anti-HMGB1 was added to cells at 100 μl/well overnight. The luciferase activity was then measured to reflect TLR4 activation (Promega).

[3] = system: Tx-HMGB1+LPS stimulated IL-6 release (TLR4 signaling); assay: Inhibition of HMG1 mediated enhancement of TLR signaling, Tx-HMGB1+LPS in human PBMCs; assay type: cell-based
Method: Cytokine Release Assays: Human PBMCs were treated with rHMG1 in the presence or absence of Polymyxin B (FIG. 20). Human PBMCs were treated with rHMG1 and Tx-HMGB1 at concentrations up to 4 μg/ml (FIG. 21). ˜16 μg/mL (512 nM) Tx-HMGB1 was incubated with 61.5 EU/mL (6.15 ng/mL; approx. 0.615 nM) LPS overnight at 4° C. The sample was diluted as indicated and added to human PBMCs (FIG. 22). In all assays the cells were incubated overnight at 37° C., 5% CO2 and the supernatants were assayed for cytokine levels by Bioplex assay. When present Polymyxin B was used at 8 U/mL.
Inhibition of HMG1 Mediated Enhancement of TLR Signaling: Human PBMCs were treated with Tx-HMGB1+LPS (as described above) in combination with either the Anti-HMG1 antibody E11, S16 or G4, anti-TLR4 antibody, or isotype control antibodies (R3, IgG2a) and incubated overnight at 37° C., 5% CO2 in the presence of 8 U/mL Polymyxin B. The supernatants were assayed for cytokine levels (FIG. 22, right panel).

[4] = system: HMG1 stimulated cytokine gene expression in mouse macrophages; assay: Taqman analysis of mouse macrophages (mMØ) stimulated with HMG1; assay type: cell-based; settings: rHMG1
Method: Taqman Analysis of Mouse Macrophages (mMØ) Stimulated with HMG1: Mouse bone marrow was harvested by rinsing the femurs of normal C57BL/6 mice. The isolated bone marrow cells were then cultured in Dulbecco's modified Eagle's medium (DMEM) supplemented with 10% fetal bovine serum (FBS) and 50 ng/ml M-CSF for 24 h, nonadherent cells were collected and grown for 6 days in complete DMEM supplemented with 10% FBS and 50 ng/ml M-CSF in T-75 flasks (1×10^7 cells/15 ml/flask). On day 6, adherent cells were harvested and reseeded with 5 ng/ml MCSF in α-MEM containing 10% FBS in 96-well plates (1×10^5 cells/200 μl/well) overnight.
The culture medium was replaced with α-MEM and incubated for 2 hours before stimulation to starve cells. HMGB1 (recombinant CBP-HMGB1 fusion protein generated from E. coli at 10 μg/ml), mouse-RAGE-Fc or human-RAGE-Fc fusion protein were pre-mixed with various blocking reagents at 100 μg/ml in α-MEM for 20 min at RT, then 100 μl of the mixtures was added to the cells and incubated at 37° C. for 2 hours. The supernatant was then removed, and the RNA was extracted using Ambion's MagMAX™-96 Total RNA Isolation Kit. All of the recovered RNA were used in a reverse transcriptase (RT) reaction with SuperScript™ III and oligo(dT) primer (Invitrogen) for synthesis of cDNA. 1 μl or 2 μl of the resulting cDNA was used for real time quantitative PCR analysis (TaqMan) using ABI Prism 7700 or 7000.

Molecule	block of IL-6 release induced by native activated HMG1 [1]	block of HMG1 induced TLR4 activation [2]	inhibition of Tx-HMGB1+LPS induced IL-6 release [3]	inhibition of HMG1-induced IL-1β gene expression [4]	inhibition of HMG1-induced TNF-a gene expression [4]
B1	less effective				
B2		able to inhibit HMG1 activation of TLR4			
B3	able to block IL-6 released induced by native activated HMG1		reduction in IL-6 release to near background levels; also recorded: block the Tx-HMG1 mediated enhancement of TLR4 signaling; also recorded: can be inhibited		
B4	able to block IL-6 released induced by native activated HMG1				
B5	able to block IL-6 released induced by native activated HMG1	able to inhibit HMG1 activation of TLR4; also recorded: significant ability to block HMG1 induced TLR4 activation	reduction in IL-6 release to near background levels; also recorded: block the Tx-HMG1 mediated enhancement of TLR4 signaling; also recorded: can be inhibited	significantly reduce HMG1-induced IL-1b gene expression; also recorded: robustly inhibited	
B6				significantly reduce HMG1-induced IL-1b gene expression; also recorded: robustly inhibited	significantly reduce HMG1-induced TNF-α gene expression; also recorded: robustly inhibited
